In article PMC4373355:

Assays:
[1] = biological target: T1, Human amylin (1-37) (human); assay: cross-linking; conditions: remark: other sources report otherwise
T1 chain: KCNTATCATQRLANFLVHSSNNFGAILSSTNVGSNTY

[2] = biological target: T1, Human amylin (1-37) (human); assay: cross-linking; conditions: remark: other sources report otherwise

Binder: KCNTATCATQRLANFLVHSSNNFGAILSSTNVGSNTY [Human amylin (1-37)]
- stoichiometry N [1]: 6
- stoichiometry N [2]: < 6
